From IntAct's records for PubMed 17986188

B1: Cell division protein FtsA (Escherichia coli (strain K12)), P0ABH0 (parent)
chain: MIKATDRKLVVGLEIGTAKVAALVGEVLPDGMVNIIGVGSCPSRGMDKGGVNDLESVVKCVQRAIDQAELMADCQISSVYLALSGKHISCQNEIGMVPISEEEVTQEDVENVVHTAKSVRVRDEHRVLHVIPQEYAIDYQEGIKNPVGLSGVRMQAKVHLITCHNDMAKNIVKAVERCGLKVDQLIFAGLASSYSVLTEDERELGVCVVDIGGGTMDIAVYTGGALRHTKVIPYAGNVVTSDIAYAFGTPPSDAEAIKVRHGCALGSIVGKDESVEVPSVGGRPPRSLQRQTLAEVIEPRYTELLNLVNEEILQLQEKLRQQGVKHHLAAGIVLTGGAAQIEGLAACAQRVFHTQVRIGAPLNITGLTDYAQEPYYSTAVGLLHYGKESHLNGEAEVEKRVTASVGSWIKRLNSWLRKEF
B2: Cell division protein FtsA (Escherichia coli (strain K12)), P0ABH0 (parent)
chain: B1 chain
partner: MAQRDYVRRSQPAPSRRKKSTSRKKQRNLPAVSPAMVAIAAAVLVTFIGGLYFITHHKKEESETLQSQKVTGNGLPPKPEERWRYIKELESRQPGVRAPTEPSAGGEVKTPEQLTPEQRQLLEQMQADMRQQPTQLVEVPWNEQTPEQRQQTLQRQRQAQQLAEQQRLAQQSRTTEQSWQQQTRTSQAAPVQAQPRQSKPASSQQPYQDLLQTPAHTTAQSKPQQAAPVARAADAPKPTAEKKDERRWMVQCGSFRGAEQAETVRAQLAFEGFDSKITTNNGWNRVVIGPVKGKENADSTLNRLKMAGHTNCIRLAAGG

Variants of: B1
Details: with ftsz_ecoli ftsZ

Row | Variant | effect of a mutation on the interaction
1 | E69P | decreasing interaction strength
2 | R286W | increasing interaction strength

Variants of: B2
Details: with ftsn_ecoli ftsN

Row | Variant | effect of a mutation on the interaction
3 | E69P | decreasing interaction strength
4 | M71A | decreasing interaction strength
